According to the supplement of paper PMC12636428:

Test system: Saccharomyces cerevisiae
Experiment: transcriptional activation domain activity (GFP:mCherry ratio, weighted mean of sorted bins, harmonized to initial dataset scale) (arbitrary fluorescence ratio units); higher = stronger transcriptional activation
Conditions: beta-estradiol 1 µM; induction time 4 h
Method in brief: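 After a 1:5 dilution into SC with 1 uM beta-estradiol and 4 hours at 30 °C, yeast diploids carrying a GFP reporter and URA3-integrated barcoded tiles were sorted into 8 bins by GFP:mCherry ratio. The tiles were fused to an estradiol-inducible synthetic transcription factor. Barcodes were sequenced, tiles below 50 reads were discarded, and activation activity was taken as the read-weighted mean of bin median fluorescence, averaged across barcodes and linearly mapped onto the initial dataset scale.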

| Sequence | transcriptional activation domain activity |
| --- | --- |
| GAVARAAHAAAPAGVRAAAPAPAGVHALAPAGAHALVHAPARAGPARALVLAG | 48800 |
| GAVINLSLSLGRRTQVEEAIKLVRYKAHYVSGSIDHGLHRLLVWAYTLLTVRI | 57100 |
| GAVMPILMQFFFIMAWNGICNGMHLYAAYNLRTHVLARLFWSILWPLLSSLCS | 59900 |
| GAVNLSSNERVVFSCRGEVLESKFGRSSKLSPRTFVVTTSKFYIVVQMLVSGQ | 37800 |
| GAYYLVSGLNGFELYEFDDNYHCGCCRDVHYRLFWFLIETISVLHGRWVFLQV | 28800 |
| GCDYVFSMYVLGAGLWLFIFYLPPIVFSIVCLCYLTLIWAVSWVLLWCLIFIL | 53900 |
| GCEPKNQRIFYFHVLILQRSLMARLERHEEGLSTKEWRLVLGDHYWISHWKKV | 51400 |
| GCKRESQEREEDKNIEKIRKKKQSVVNRKSKRRSETNRRNIKRNNRQHAARER | 55600 |
| GCLLPVTSCVFLAPFTLDFLWIPFLTHYLIILLCWYHLFSLRLLFCCSKSLPT | 57200 |
| GCLLTFPNKIDWATLVIILFSETFTICLLLIKGFYWVISSAHKVGDRVLYYVA | 50800 |
| GCRKDQRARRRRSPALANRPEMKGVCLKTGITKPKKPNSGERKTARIRLSSGR | 38900 |
| GCRNAYEIKTLRFGGVCMLHRCGGGQNCFKECCIDLMICLRFYIPFMKKFCPK | 15900 |
| GCVVSCKLVGLFTITLIGVAVLYDLWRIIDIRRGTTMAQFARHFVARALALIA | 21600 |
| GCWGETWWYTMQFGALLAEGAAQHWLGLLEQKVLPWSRYGMMQKGLRRLFGYV | 75600 |
| GDADEDGNGHGTHCSGTVAGKKYGVAKKANVYAVKVLRSNGSGSMSDVVKGVE | 30300 |
| GDADVDGNGHGTHCSGTIAGKKYGVSKKAKIYAVKVLRSNGSGTMADVVAGVE | 59400 |
| GDAEPSSKGGEDSSGGEGSADEEKPKAKPAKAKSKSSSSKEPVKKKAKKEKKD | 21400 |
| GDAGGSSAAEQREAGQERRQRRGAERRQRQSVFEQLGGAEQRGAGRGSAGRGG | < 6570 |
| GDAHAAPKGRKGGGKKRKAADEDGEEEGEAEKPAKKAGKRGKKGKATPTQEEG | 12100 |
| GDAKSTLEQLGDDAKLVDEDGNLCDAECIVDKVKEVVKHAGRTTRKSLLKLGL | 51100 |
| GDAPASFHSFCVVRVFMDVCWLGKRLCLKVLNMDPTCPWLMLLLLKATRLHLS | 65300 |

| Sequence | transcriptional activation domain activity |
| --- | --- |
| GDDCEVFFLFTFTFTFFFFYFFPRVLFTPFFFYILDLSLFFYCCSCFFFFSPC | 27100 |
| GDDEETQGNATKNILDDWEGAPESFVCQEQRQTGGRVAAKTQRLLSFSIHDEL | 23100 |
| GDDETDAPAKPKEGEDEKKPSSASPEDDLRSSRRSHKKREPGHRDRDRERDRD | 15300 |
| GDEDEEDTAELKEEALKGLIAVLVCASVLSIVRALMHSQLDLSILELLVDNMT | 53600 |
| GDEEREQRKKHKKRKDRGSDDEDRHHKHKHKKDKHREKGTKDSKKHRGNEPSS | 64300 |
| GDEIVVVIQRARPVSAAAASSVTAVKVRRGDVRRAVIVRTRKAVRRPDGRYIR | 70400 |
| GDEKKRNRERSREGGHRERSRSPDRERRSRRKRSHSRDRSSTRRRHKRHRSRS | 30400 |
| GDEKLAKGRGDEKPAKGKGKEKKAKAKGKKAKGEKKAEDKENAVKESLENAVK | 32800 |
| GDERSRKAGEKETSRGGRGAGGGRRETGRKEKPGGKAGKGGRTRAGGRGREKK | 21800 |
| GDESRIDTKFFFGCVGLSNVVFIWPVLVLFHYLGIERFGLPPSSRIWWLLLLN | 50100 |
| GDFESKCYLFEPSELRFPPHVFSLTNGRLYRRWYFLDLQSGMLFRFFYICDWR | 32700 |
| GDFNDKTLKENCRVDSQQDCYDLAQLQILESDFWKTIAFSKPFYAVDENSSIF | 102000 |
| GDGKEEGAQKKKKKKAKKAHGEEGEQEGGDEKAKKKKKKKKKKALGGRARARA | 26600 |
| GDGTPTLSWRHDLGGGEVRDLEVTVVKVHSGEVTLLSSATLKLVLVFHLSSTI | 43400 |
| GDKEKRKTSRRSRSPSRGRHQRRGGGGGEESRPRSESPRRRRRRLDSSARRDD | 44400 |
| GDKNKRKRGDSAASEAQAGQQEAAKEVQQKKKRVRSKGKAAAPPVAQASAGAS | 45300 |
| GDKTEGAEGEDGAQRRQSTRGRGRSGRGRGGRGRGGRADENKDEENHEDAGES | 22500 |
| GDLGFRDSIVTKVLQDARSNFLVSVSRLLRPIFVLMKKWVRLAVERLNICHSR | 33300 |
| GDQGAGRRDRRRRLGHRGGGEGRGREEGEEGRRDGEGRHRGEGGREEGEEEDR | 14300 |
| GDSTNGNNSPVEDEANLRRKAKKRREKEREREEKKRVGRREKAKKTNGGEKQG | 27000 |
| GDVAATDIGSKGGKKDGKRQKGSAAHVDGEDTSEDKKGAAKTGKRKKGGGAKE | 27200 |

| Sequence | transcriptional activation domain activity |
| --- | --- |
| GEAGAEGEAAAAEGEGAAEEGASGEGAEGEEAAAEEGEGAEEEGGEDLQALAT | < 6570 |
| GEAGAEQGEHGARRARTRGAGCVRGRGREVGEGAGARRRVCGRRCEREARAHN | 23400 |
| GEAGEAGEAGAEGTATEEREEEEEQQQKKEERKRKRKRKQQQGSGKVTVAAAK | 45000 |
| GEAQARANADAQADAGEVPEKGKKKRRHKEGGGDGEGKKKKRKEKQTEPEEGA | 24700 |
| GEASAEKTKKRSRASKGGEDGKKKKSKEARVESNGANGHAGGDAAAAAAAEQQ | 30400 |
| GEDEEEGEEEEEEDDDDEEEKDHDEDEGDQGDGASDDADAAAQERPGKPRPGR | 8020 |
| GEDSTRSAKKPTNKRKKASTAGDEGRETKARKTAKGRAGTRVRKGRGAKTSSS | 20500 |
| GEDTAQEGGEEGATSADEEETASTTRSGRKPKKIKTAVPIKRKRRSGRGGIAA | 31200 |
| GEEARDRGHRSGSGRHRSRDRERRRRRDRDDDRHTSSRHSRRERSPEEDSSRR | 36700 |
| GEEDAEEEAKPKKGGKRKAEPVKEEDDEPEEAPAKPKRGRKSAKEQVKEEIKE | 42700 |
| GEEGDKPKRGRKRKEAPKDDGEDADDAEAPAAKKAKPASKPASKAAATKPASK | 34200 |
| GEEGEMSLTKDDLVELLEQDDNGWCRRSAPPARNRPVPAKPAATTNTVRASPV | < 6570 |
| GEEGKAEEAAGEEGKAEAEAGAESEKSAEGEGEASAEEGASGEEAAGEKAAGE | 26800 |
| GEEKPKPVRRQRQPKDPNAPPPQRKKRKTAAEKAAEAAAAASTPTPAPAPAPA | 13600 |
| GEEVSAPLPKPKGKGGRPRKHPRPEPVASEYEVDGEPTPKRARRAIKSKRGRR | 23500 |
| GEGAGGRDSTKTGAKAAGTGSTASKQPSNSASGGGQGKKKQPSATSAAGRKIA | 59000 |
| GEGEAKTKKRNKRSKAPVEGEAAETPAAATTEGEEAAAPAAPKKEKKPRKPRA | 8960 |
| GEGEEDDVNGNKKRASDRSSSPKSKRSRKDEEEKEKEKKPTVKKPRQTKPKTT | 31300 |
| GEGEGEVEAEVPTAAANEPVLEVQPKEPEPEAPAQPQQQPAAVKTTRPAPVSH | 28800 |
